The series is described as follows: self-splicing fitness, log relative to wild type (ln ratio); higher = more splicing; Tetrahymena group I intron in knt gene, E. coli kanamycin selection, DiMSum; sequences stand for … in CUCUCU…GGAGGGAAAAGUUAUCAGGCAUGCACCUGGUAGCUAGUCUUUAAACCAAUAGAUUGCAUCGGUUUAAAAGGCAAGACCGUCAAAUUGCGGGAAAGGGGUCAACAGCCGUUCAGUACCAAGUCUCAGGGGAAACUUUGAGAUGGCCUUGCAAAGGGUAUGGUAAUAAGCUGACGGACAUGGUCCUAACCACGCAGCCAAGUCCUAAGUCAACAGAUCUUCUGUUGAUAUGGAUGCAGUUCACAGACUAAAUGUCGGUCGGGGAAGAUGUAUUCUUCUCAUAAGAUAUAGUCGGACCUCUCCUUAAUGGGAGCUAGCGGAUGAAGUGAUGCAACACUGGAGCCGCUGGGAACUAAUUUGUAUGCGAAAGUAUAUUGAUUAGUUUUGGAGUACUCGUGGUCG
The method, boiled down:
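The eight P1ex-region nucleotides of an intron in the knt kanamycin-resistance gene on pET-22b(+) were all randomised and the library put into E. coli BL21(DE3). Six replicate transformations were grown overnight at 37°C or 30°C on LB agar with or without 25 μg/mL kanamycin, together with 100 μg/mL carbenicillin, 50 μM IPTG and 0.2% rhamnose. Colonies were pooled and amplicon-sequenced on an Illumina HiSeq 2500. Fitness from DiMSum is the error-weighted combination of wild-type-normalised replicate fold changes, kanamycin over none.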

± gives the uncertainty stated by the source.

In the case of GUGUAGCAAUAUUACGAUAU, the “self-splicing fitness (ln)” value runs as follows: (30 °C) -0.699 ± 0.17; (37 °C) -0.881 ± 0.21. Turning to GUGUAGCAAUAUUACGCAAU, the “self-splicing fitness (ln)” value (30 °C) is -2.06 ± 0.22 and the “self-splicing fitness (ln)” value (37 °C) is -1.26 ± 0.18. With GUGUAGCAAUAUUACGCGGA, under “37 °C”, the “self-splicing fitness (ln)” value was -1.54 ± 0.36.

Regarding GUGUAGCAAUAUUACGGACA, the “self-splicing fitness (ln)” value reads like this: (30 °C) -0.685 ± 0.15; (37 °C) -1.11 ± 0.18. GUGUAGCAAUAUUACGGUAA: the “self-splicing fitness (ln)” value runs as follows: (30 °C) -2.48 ± 0.14; (37 °C) -1.49 ± 0.11. As to GUGUAGCAAUAUUACGUAAA, the “self-splicing fitness (ln)” value reads like this: (30 °C) -2.96 ± 0.21; (37 °C) -0.326 ± 0.15. Consider GUGUAGCAAUAUUACGUAAU, for which the “self-splicing fitness (ln)” value is, setting by setting: (30 °C) -1.75 ± 0.12; (37 °C) -0.371 ± 0.12. In the case of GUGUAGCAAUAUUACGUAUC, the “self-splicing fitness (ln)” value (30 °C) is -1.01 ± 0.29. In the case of GUGUAGCAAUAUUACGUCAG, the “self-splicing fitness (ln)” value by setting is: (30 °C) -3.06 ± 0.26; (37 °C) -2.53 ± 0.29. Regarding GUGUAGCAAUAUUACGUGCG, the “self-splicing fitness (ln)” value runs as follows: (30 °C) -1.8 ± 0.18; (37 °C) -0.374 ± 0.19. Consider GUGUAGCAAUAUUACGUGUC, for which the “self-splicing fitness (ln)” value runs as follows: (30 °C) -2.67 ± 0.21; (37 °C) -0.104 ± 0.12. As to GUGUAGCAAUAUUACGUUAU, the “self-splicing fitness (ln)” value is, setting by setting: (30 °C) -2.81 ± 0.16; (37 °C) -2.41 ± 0.2.

On to GUUAAGCAAUAUUACGAAAC, for which the “self-splicing fitness (ln)” value runs as follows: (30 °C) -3 ± 0.48; (37 °C) -2.83 ± 0.48. As to GUUAAGCAAUAUUACGAAGU, the “self-splicing fitness (ln)” value is -2.06 ± 0.18 (30 °C) and -1.45 ± 0.23 (37 °C). As for GUUAAGCAAUAUUACGAGAC, the “self-splicing fitness (ln)” value (37 °C) is -0.662 ± 0.25. Regarding GUUAAGCAAUAUUACGAGGG, the “self-splicing fitness (ln)” value reads like this: (30 °C) -3.99 ± 0.21; (37 °C) -3.08 ± 0.25. For the sequence GUUAAGCAAUAUUACGAGUA, the “self-splicing fitness (ln)” value was -2.5 ± 0.12 (30 °C) and -1.32 ± 0.095 (37 °C). Regarding GUUAAGCAAUAUUACGAUCA, the “self-splicing fitness (ln)” value reads like this: (30 °C) -0.949 ± 0.23; (37 °C) -0.245 ± 0.2.

Regarding GUUAAGCAAUAUUACGAUCU, the “self-splicing fitness (ln)” value is -0.419 ± 0.087 (30 °C) and -0.373 ± 0.11 (37 °C). Taken in the same sequence, the figures for GUUAAGCAAUAUUACGCACU were -0.8 ± 0.22 and -1.17 ± 0.23.

Take GUUAAGCAAUAUUACGCAGA: the “self-splicing fitness (ln)” value is -2.33 ± 0.14 (30 °C) and -2.85 ± 0.14 (37 °C). Consider GUUAAGCAAUAUUACGCCUU, for which the “self-splicing fitness (ln)” value (30 °C) is -0.286 ± 0.071 and the “self-splicing fitness (ln)” value (37 °C) worked out at 0.261 ± 0.096. As to GUUAAGCAAUAUUACGCGAC, the “self-splicing fitness (ln)” value runs as follows: (30 °C) -3.02 ± 0.21; (37 °C) -2.15 ± 0.22. Regarding GUUAAGCAAUAUUACGCGAU, the “self-splicing fitness (ln)” value was -3.1 ± 0.21 (30 °C) and -2.65 ± 0.29 (37 °C).

For GUUAAGCAAUAUUACGCGUA, the “self-splicing fitness (ln)” value is, setting by setting: (30 °C) -1.2 ± 0.17; (37 °C) -0.453 ± 0.25. As for GUUAAGCAAUAUUACGCUUC, the “self-splicing fitness (ln)” value (37 °C) was -1.01 ± 0.49. For the sequence GUUAAGCAAUAUUACGGAAA, the “self-splicing fitness (ln)” value was -1.77 ± 0.26 (30 °C) and -1.06 ± 0.27 (37 °C). With GUUAAGCAAUAUUACGGACA, the “self-splicing fitness (ln)” value was -0.907 ± 0.21 (30 °C) and -1.18 ± 0.21 (37 °C).

Take GUUAAGCAAUAUUACGGAGC: the “self-splicing fitness (ln)” value runs as follows: (30 °C) -3.58 ± 0.33; (37 °C) -2.55 ± 0.27. On the same counts, the results for GUUAAGCAAUAUUACGGAUG are -3.1 ± 0.28 and -0.786 ± 0.16. GUUAAGCAAUAUUACGGAUU: the “self-splicing fitness (ln)” value was -2.21 ± 0.12 (30 °C) and -0.713 ± 0.14 (37 °C). As to GUUAAGCAAUAUUACGGCUG, the “self-splicing fitness (ln)” value runs as follows: (30 °C) -0.765 ± 0.11; (37 °C) -0.135 ± 0.13. Regarding GUUAAGCAAUAUUACGGGAA, the “self-splicing fitness (ln)” value was -1.87 ± 0.34 (30 °C) and -1.86 ± 0.29 (37 °C). Taken in the same sequence, the figures for GUUAAGCAAUAUUACGGUUC were -1.6 ± 0.081 and -0.156 ± 0.12.

(Values after the supplement of paper PMC7877785.)
